Measurements as given in patent publication US20050208041A1 (Bristol-Myers Squibb, published 2005).

Tests used:
IFNAR-1 on human cells [1] = target: T1, IFNAR-1 on human cells (human, UniProt P17181 28-557); experiment: cell-based or functional assay
T1 sequence (looked up): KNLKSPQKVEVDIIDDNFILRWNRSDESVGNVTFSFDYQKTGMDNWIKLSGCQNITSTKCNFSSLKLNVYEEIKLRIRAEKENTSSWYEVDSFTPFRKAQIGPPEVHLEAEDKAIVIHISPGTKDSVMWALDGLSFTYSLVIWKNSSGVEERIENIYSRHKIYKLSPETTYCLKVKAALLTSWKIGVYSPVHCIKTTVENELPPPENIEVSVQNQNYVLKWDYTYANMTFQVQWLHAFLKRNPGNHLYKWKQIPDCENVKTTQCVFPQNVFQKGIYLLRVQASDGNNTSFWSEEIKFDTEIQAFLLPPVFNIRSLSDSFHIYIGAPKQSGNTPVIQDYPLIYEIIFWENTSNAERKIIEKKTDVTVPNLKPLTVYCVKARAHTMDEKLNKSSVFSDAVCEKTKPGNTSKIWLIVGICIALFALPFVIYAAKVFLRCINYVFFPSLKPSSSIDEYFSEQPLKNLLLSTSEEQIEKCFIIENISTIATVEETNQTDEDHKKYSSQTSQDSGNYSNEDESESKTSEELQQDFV

IFNAR-1 on human cells [2] = target: T1, IFNAR-1 on human cells; experiment: cell-based or functional assay; remark: listed apart in the source
[3] = target: T2, purified recombinant IFNAR-1 extracellular fragment (human, UniProt P17181 28-436); experiment: Biacore, antibody on immobilized soluble IFNAR-1, maximal response, mean of four
T2 construct: extracellular domain; also called soluble IFNAR-1; soluble IFNAR
T2 sequence (looked up): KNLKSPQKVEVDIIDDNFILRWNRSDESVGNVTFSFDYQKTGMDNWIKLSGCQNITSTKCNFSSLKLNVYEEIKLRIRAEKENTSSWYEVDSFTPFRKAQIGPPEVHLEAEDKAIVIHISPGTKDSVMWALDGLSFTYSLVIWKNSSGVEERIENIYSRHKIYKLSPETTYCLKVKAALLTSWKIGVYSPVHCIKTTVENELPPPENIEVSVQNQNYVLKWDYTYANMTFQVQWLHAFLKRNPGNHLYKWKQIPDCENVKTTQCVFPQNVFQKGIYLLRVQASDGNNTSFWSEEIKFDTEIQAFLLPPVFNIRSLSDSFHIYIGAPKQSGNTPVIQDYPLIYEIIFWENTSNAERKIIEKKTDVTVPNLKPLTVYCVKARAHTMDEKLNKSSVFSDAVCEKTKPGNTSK
Experimental: Additional combination variants heavy chain DI M3-B and light chain DI K1-C were also made. These combination variants were also tested for binding to IFNAR-1. […] Binding analysis was done by Biacore, with the antibody bound to immobilized soluble IFNAR-1. Maximal response was determined at two concentrations and values shown are mean of four determinations.

[4] = target: T2, purified recombinant IFNAR-1 …; experiment: Biacore, response on IFNAR-1 (flow cell 2) divided by response on anti-human IgG Fc (flow cell 4)
Excerpt: A series of antibodies were constructed with reduced numbers of potential T-cell epitopes. These included heavy chain variants M3-A and M3-B in which residues were changed in CDR regions and DI M3 in which framework residues were altered. De-immunized light chains were also constructed termed K1-C, K1-D, K1-E and DI K1. The antibodies were expressed and purified before analysis by Biacore. A Biacore chip was used with IFNAR-1 coated on Flow cell 2 at 690 RU and anti-human IgG Fc on flow cell 4 at 5000 RU. Binding of the antibody to IFNAR-1 relative to anti-human IgG Fc was determined by the ratio of response at flow cell 2 divided by flow cell 4 (Fc2/Fc4).

[5] = target: T2, purified recombinant IFNAR-1 …; experiment: Biacore, IFNAR-1 extracellular fragment coupled to CM5 chip, antibody 1.75-80 nM
Experimental: Antibodies from clones 64G12, H2K6, H2K1, H3K6, and H3K1 were assayed by Biacore analysis (Biacore AB, Uppsala, Sweden) to determine binding kinetics. Purified recombinant IFNAR-1 extracellular fragment was coupled to the CM5 sensor chip @ 600 RU. Binding was measured by adding antibody at concentrations from 1.75-80 nM at a flow rate of 20 ul/min. The binding curves were fit to a Langmuir binding model using BIAevaluation software (Biacore AB, Uppsala, Sweden).

[6] = target: T2, purified recombinant IFNAR-1 …; experiment: Biacore, antibody captured on anti-human IgG Fc, soluble IFNAR 25-400 nM, flow cell 2-1 low density capture
[7] = target: T2, purified recombinant IFNAR-1 …; experiment: Biacore, antibody captured on anti-human IgG Fc, soluble IFNAR 25-400 nM, flow cell 4-3 higher density capture

B1: H3K1 (IgG1) (antibody, V domains shown)
VH: EVQLVESGGGLVQPGGSLRLSCAFSGFTLSTSGMGIGWVRQAPGKGLEWVAHIWWDDDKYYNPSLKSRFTISRDTSKNTVYLQMNSLRAEDTAVYYCARNYYPYDAWFDYWGQGTLVTVS
VL: DIQMTQSPSSLSASVGDRVTITCSASSSINSNHLHWYQQKPGKAPKLLIYRTSILASGVPSRFSGSGSGTSFTLTISSLQPEDFATYYCQQGSNIPFTFGQGTKVEIKR
In the case of B1, the “ISRE-RG reporter assay with IFNβ, potency against H3K1 (IgG4)” value (IFNAR-1 on human cells [1]) is reported as about 10 fold, the “Cell Proliferation (Daudi) IC50, cells cultured with interferon α2b” value (IFNAR-1 on human cells [2]) is reported as 3.9 nM and the “ISRE-RG Reporter (U937) IC50, interferon α2b” value (IFNAR-1 on human cells [2]) is reported as 2.7 nM.

B2: M3 heavy chain with DI K1 light chain (antibody, human IgG4, V domains shown)
VH: EVQLLESGGGLVQPGGSLRLSCAFSGFTLSTSGMGIGWVRQAPGKGLEWVAHIWWDDDKYYNPSLKSRFTISRDTSKNTVYLQMNSLRAEDTAVYYCARNYYPYDAWFDYWGQGTLVTVS
VL: DIQMTQSPSSLSASVGDRATITCSASSSINSNHLHWYLQKPGKAPKALIYRTSILASGIPSRFSGSGSGTDFTLTISSLQPEDTATYYCQQGSNIPFTFGQGTKVEIKR
notes: also called M3 DI K1
B2 was tested, and the “% response relative to H3K1” value [3] was 25%, the “% activity relative to H3K1” value [4] was 57% and the Fc2/Fc4 [4] was 0.17.

B3: DI M3-B K1C (h IgG1) (antibody, V domains shown)
VH: EVQLLESGGGLVQPGGSLRLSCAASGFTMSTSGMGIGWIRQTPGKGLEWVAHIWWDDDKYYNPSLKARFTISRDTSKNTLYLQMNSLRAEDTAVYYCARNYYPYDAWFDYWGQGTLVTVS
VL: DIQMTQSPSSLSASVGDRVTITCSASTSINSNHLHWYQQKPGKAPKLLIYRTSILASGVPSRFSGSGSGTSFTLTISSLQPEDFATYYCQQGSNIPFTFGQGTKVEIKR
With B3 the “Cell Proliferation (Daudi) IC50, cells cultured with interferon α2b” value (IFNAR-1 on human cells [2]) was 10 nM and the “ISRE-RG Reporter (U937) IC50, interferon α2b” value (IFNAR-1 on human cells [2]) was 4.6 nM.

B4: H3K6 (antibody, V domains shown)
VH: EVQLVESGGGLVQPGGSLRLSCAFSGFTLSTSGMGIGWVRQAPGKGLEWVAHIWWDDDKYYNPSLKSRFTISRDTSKNTVYLQMNSLRAEDTAVYYCARNYYPYDAWFDYWGQGTLVTVS
VL: EIVLTQSPDFQSVTPKEKVTITCSASSSINSNHLHWYQQKPGQSPKLLIYRTSILASGVPSRFSGSGSGTSFTLTINSLEAEDVATYYCQQGSNIPFTFGQGTKLEIKR
notes: Full-length antibody with human IgG constant regions; also called heavy chain H3 with light chain K6
With B4 the Kd [5] was 1.8 nM.

B5: H2K1 (antibody, V domains shown)
VH: QVTLKESGPALVKPTQTLTLTCTFSGFSLSTSGMGIGWIRQPPGKALEWLAHIWWDDDKYYNPSLKSRLTISRDTSKNQVVLTMTNMDPVDTATYYCGRNYYPYDAWFDYWGQGTLVTVS
VL: DIQMTQSPSSLSASVGDRVTITCSASSSINSNHLHWYQQKPGKAPKLLIYRTSILASGVPSRFSGSGSGTSFTLTISSLQPEDFATYYCQQGSNIPFTFGQGTKVEIKR
notes: Full-length antibody with human IgG constant regions; also called heavy chain H2 with light chain K1
B5 was tested, and the Kd [5] was 0.8 nM.

B6: M3-B heavy chain with K1 light chain (antibody, human IgG4, V domains shown)
VH: EVQLLESGGGLVQPGGSLRLSCAFSGFTLSTSGMGIGWVRQAPGKGLEWVAHIWWDDDKYYNPSLKARFTISRDTSKNTVYLQMNSLRAEDTAVYYCARNYYPYDAWFDYWGQGTLVTVS
VL: DIQMTQSPSSLSASVGDRVTITCSASSSINSNHLHWYQQKPGKAPKLLIYRTSILASGVPSRFSGSGSGTSFTLTISSLQPEDFATYYCQQGSNIPFTFGQGTKVEIKR
notes: also called M3-B K1
For B6, the “% response relative to H3K1” value [3] was 117%, the “% activity relative to H3K1” value [4] was 103% and the Fc2/Fc4 [4] was 0.31.

B7: DI M3-B heavy chain with K1-C light chain (Example 3) (antibody, V domains shown)
VH: EVQLLESGGGLVQPGGSLRLSCAASGFTMSTSGMGIGWIRQTPGKGLEWVAHIWWDDDKYYNPSLKARFTISRDTSKNTLYLQMNSLRAEDTAVYYCARNYYPYDAWFDYWGQGTLVTVS
VL: DIQMTQSPSSLSASVGDRVTITCSASTSINSNHLHWYQQKPGKAPKLLIYRTSILASGVPSRFSGSGSGTSFTLTISSLQPEDFATYYCQQGSNIPFTFGQGTKVEIKR
notes: also called DIM3-B K1-C; DI M3-B K1-C
In the case of B7, the “% response relative to H3K1” value [3] is reported as 100%, the Kd [6] is reported as 0.502 nM and the koff [6] is reported as 2.82e-06 s⁻¹. It also gave a kon [6] of 5610 M⁻¹ s⁻¹, a Kd [7] of 3.53 nM and a koff [7] of 1.64e-05 s⁻¹. The kon [7] was 4640 M⁻¹ s⁻¹.

B8: M3 heavy chain with K1-C light chain (antibody, human IgG4, V domains shown)
VH: EVQLLESGGGLVQPGGSLRLSCAFSGFTLSTSGMGIGWVRQAPGKGLEWVAHIWWDDDKYYNPSLKSRFTISRDTSKNTVYLQMNSLRAEDTAVYYCARNYYPYDAWFDYWGQGTLVTVS
VL: DIQMTQSPSSLSASVGDRVTITCSASTSINSNHLHWYQQKPGKAPKLLIYRTSILASGVPSRFSGSGSGTSFTLTISSLQPEDFATYYCQQGSNIPFTFGQGTKVEIKR
notes: also called M3 K1-C
For B8, the “% response relative to H3K1” value [3] was 100%, the “% activity relative to H3K1” value [4] was 97% and the Fc2/Fc4 [4] was 0.29.

B9: M3-B heavy chain with K1-C light chain (antibody, V domains shown)
VH: EVQLLESGGGLVQPGGSLRLSCAFSGFTLSTSGMGIGWVRQAPGKGLEWVAHIWWDDDKYYNPSLKARFTISRDTSKNTVYLQMNSLRAEDTAVYYCARNYYPYDAWFDYWGQGTLVTVS
VL: DIQMTQSPSSLSASVGDRVTITCSASTSINSNHLHWYQQKPGKAPKLLIYRTSILASGVPSRFSGSGSGTSFTLTISSLQPEDFATYYCQQGSNIPFTFGQGTKVEIKR
notes: also called M3-B K1-C
B9 was tested, and the “% response relative to H3K1” value [3] was 156%, the Kd [6] was 7.47 nM and the koff [6] was 4.1e-05 s⁻¹. For the same binder, the kon [6] was 5490 M⁻¹ s⁻¹, the Kd [7] was 7.45 nM and the koff [7] was 4.06e-05 s⁻¹. For the same binder, the kon [7] was 5460 M⁻¹ s⁻¹.

B10: DI M3 heavy chain with DI K1 light chain (antibody, human IgG4, V domains shown)
VH: EVQLLESGGGLVQPGGSLRLSCAASGFTMSTSGMGIGWIRQTPGKGLEWVAHIWWDDDKYYNPSLKSRFTISKDTSKNTLYLQMNSLRAEDTAVYYCARNYYPYDAWFDYWGQGTLVTVS
VL: DIQMTQSPSSLSASVGDRATITCSASSSINSNHLHWYLQKPGKAPKALIYRTSILASGIPSRFSGSGSGTDFTLTISSLQPEDTATYYCQQGSNIPFTFGQGTKVEIKR
notes: also called DI M3 DI K1
With B10 the “% response relative to H3K1” value [3] was 8%, the “% activity relative to H3K1” value [4] was 20% and the Fc2/Fc4 [4] was 0.06.

B11: mouse-human chimeric antibody with 64G12 variable regions and human IgG4 kappa constant regions (antibody, V domains shown)
VH: QVTLKESGPGILKPSQTLSLTCSFSGFSLSTSGMGIGWIRQPSGKGLEWLAHIWWDDDKYYNPSLKSQLTISRDTSTNQVFLNITSVDTVDTATYYCGRNYYPYDAWFDYWGQGTLVTVS
VL: EIVLTQSPTTMAASPGEKITITCSASSSINSNHLHWYQQKPGFSPKVLIYRTSILASGVPTRFSGSGSGTSYSLTIGTMEAEDVATYYCQQGSNIPFTFGSGTELEIKR
notes: also called Chimeric IgG4; human IgG4 chimeric antibody
For B11, the Kd [5] was 3.6 nM.

B12: H2K6 (antibody, V domains shown)
VH: QVTLKESGPALVKPTQTLTLTCTFSGFSLSTSGMGIGWIRQPPGKALEWLAHIWWDDDKYYNPSLKSRLTISRDTSKNQVVLTMTNMDPVDTATYYCGRNYYPYDAWFDYWGQGTLVTVS
VL: EIVLTQSPDFQSVTPKEKVTITCSASSSINSNHLHWYQQKPGQSPKLLIYRTSILASGVPSRFSGSGSGTSFTLTINSLEAEDVATYYCQQGSNIPFTFGQGTKLEIKR
notes: Full-length antibody with human IgG constant regions; also called heavy chain H2 with light chain K6
B12 was tested, and the Kd [5] was 1.3 nM.
